The results in this text go back to article PMC8354592.

The Kd is the free concentration of one partner at which half of the binding sites on the other are occupied at equilibrium, for simple one-to-one binding.

This data set concerns the target GST-GNL1 (UniProt P36915 1-607). Nature of the data set: EMSA. A general note: Mobility shift assays separate free from complexed probe on a gel.

Chain of GST-GNL1 (P36915 whole entry): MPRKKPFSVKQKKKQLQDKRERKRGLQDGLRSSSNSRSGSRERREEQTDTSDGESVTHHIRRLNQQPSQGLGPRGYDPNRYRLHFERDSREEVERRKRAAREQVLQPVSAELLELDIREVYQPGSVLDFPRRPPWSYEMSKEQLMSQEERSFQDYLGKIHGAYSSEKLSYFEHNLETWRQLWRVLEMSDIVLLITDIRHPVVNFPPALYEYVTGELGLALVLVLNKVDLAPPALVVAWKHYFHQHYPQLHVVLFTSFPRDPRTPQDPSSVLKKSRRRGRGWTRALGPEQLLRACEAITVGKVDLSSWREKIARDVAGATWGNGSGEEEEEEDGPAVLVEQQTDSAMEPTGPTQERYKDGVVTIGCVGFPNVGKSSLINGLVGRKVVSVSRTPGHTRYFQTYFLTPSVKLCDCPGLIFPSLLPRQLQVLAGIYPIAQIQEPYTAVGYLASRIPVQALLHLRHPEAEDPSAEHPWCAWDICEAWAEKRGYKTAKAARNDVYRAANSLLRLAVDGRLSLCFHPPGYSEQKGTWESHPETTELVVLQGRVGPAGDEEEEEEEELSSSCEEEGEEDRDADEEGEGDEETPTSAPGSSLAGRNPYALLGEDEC

B1: PRKN G/A mutant (ssRNA)
RNA: GGAUUCCUAGGGCCGAGCGCGAGAGCGAGAAGGCCUGAAGGAUUUAACCCAGAAGAGCCGCUGGUGAGAGGCGCGGCUGGCGCCGCUGCGCGC
As to B1, the Kd worked out at 7.34 µM.
